Data set [1] has as its system HeLa Kyoto. As to the kind of experiment: solubility in G1/S (NP-40 vs SDS abundance) (log2 ratio); higher = more soluble. The settings on record: cell cycle stage: G1/S.
Data set [2] relates to HeLa Kyoto. The data set is described as follows: melting temperature (median over replicates), in situ; higher = more thermally stable.
Data set [3] deals with HeLa Kyoto. As to the kind of experiment: solubility change mitosis vs G1/S (difference of NP-40 vs SDS log2 ratios) (log2 ratio difference); higher = more soluble in mitosis.
The test system of data set [4] is HeLa Kyoto. As to the kind of experiment: thermal stability score vs G1/S (z-score of summed log2 fold changes over temperatures); higher = more thermally stable than in G1/S.
Setting [5] is: cell cycle stage: early G1 (4.5 h after nocodazole release).
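For melting temperature (median over replicates), in situ in this document: HeLa Kyoto cells synchronized by double thymidine or nocodazole block, proteins quantified by TMT10plex mass spectrometry, three independent biological replicates.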
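For solubility change mitosis vs G1/S (difference of NP-40 vs SDS log2 ratios) in this document: synchronized HeLa Kyoto cells (double thymidine block for G1/S, nocodazole release for mitosis), protein amounts in NP-40 versus SDS lysates quantified by mass spectrometry, three biological replicates.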
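For solubility in G1/S (NP-40 vs SDS abundance) in this document: HeLa Kyoto cells arrested at G1/S by double thymidine block, proteins quantified by TMT10plex mass spectrometry in mild NP-40 versus SDS extracts, three biological replicates.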
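For thermal stability score vs G1/S (z-score of summed log2 fold changes over temperatures) in this document: synchronized HeLa Kyoto cells, proteins quantified by TMT10plex mass spectrometry, three biological replicates, mitosis taken 0.5 h after nocodazole release, G1/S directly after double thymidine block.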

“MTEGTCLRRRGGPYKTEPATDLGRWRLNCERGRQTWTYLQDERAGREQTGLEAYALGLDTKNYFKDLPKAHTAFEGALNGMTFYVGLQAEDGHWTGDYGGPLFLLPGLLITCHVARIPLPAGYREEIVRYLRSVQLPDGGWGLHIEDKSTVFGTALNYVSLRILGVGPDDPDLVRARNILHKKGGAVAIPSWGKFWLAVLNVYSWEGLNTLFPEMWLFPDWAPAHPSTLWCHCRQVYLPMSYCYAVRLSAAEDPLVQSLRQELYVEDFASIDWLAQRNNVAPDELYTPHSWLLRVVYALLNLYEHHHSAHLRQRAVQKLYEHIVADDRFTKSISIGPISKTINMLVRWYVDGPASTAFQEHVSRIPDYLWMGLDGMKMQGTNGSQIWDTAFAIQALLEAGGHHRPEFSSCLQKAHEFLRLSQVPDNPPDYQKYYRQMRKGGFSFSTLDCGWIVSDCTAEALKAVLLLQEKCPHVTEHIPRERLCDAVAVLLNMRNPDGGFATYETKRGGHLLELLNPSEVFGDIMIDYTYVECTSAVMQALKYFHKRFPEHRAAEIRETLTQGLEFCRRQQRADGSWEGSWGVCFTYGTWFGLEAFACMGQTYRDGTACAEVSRACDFLLSRQMADGGWGEDFESCEERRYLQSAQSQIHNTCWAMMGLMAVRHPDIEAQERGVRCLLEKQLPNGDWPQENIAGVFNKSCAISYTSYRNIFPIWALGRFSQLYPERALAGHP [LSS]”: the “solubility in G1/S (log2)” value in the data set on HeLa Kyoto [1] is -0.253. Besides, the melting temperature in the data set with HeLa Kyoto [2] (cell cycle stage: G1/S) turned out to be 52.7 °C; with HeLa Kyoto [2] (cell cycle stage: mitosis), 52.6 °C. The “solubility change mitosis (log2)” value in the data set on HeLa Kyoto [3] turned out to be 0.0123. Also, the results for the thermal stability score in the data set on HeLa Kyoto [4] (setting [5]) and in the data set on HeLa Kyoto [4] (cell cycle stage: mitosis) were 0.214 and 0.242, respectively.

With “MTFYLFGIRSFPKLWKSPYLGLGPGHSYVSLFLADRCGIRNQQRLFSLKTMSPQNTKATNLIAKARYLRKDEGSNKQVYSVPHFFLAGAAKERSQMNSQTEDHALAPVRNTIQLPTQPLNSEEWDKLKEDLKENTGKTSFESWIISQMAGCHSSIDVAKSLLAWVAAKNNGIVSYDLLVKYLYLCVFHMQTSEVIDVFEIMKARYKTLEPRGYSLLIRGLIHSDRWREALLLLEDIKKVITPSKKNYNDCIQGALLHQDVNTAWNLYQELLGHDIVPMLETLKAFFDFGKDIKDDNYSNKLLDILSYLRNNQLYPGESFAHSIKTWFESVPGKQWKGQFTTVRKSGQCSGCGKTIESIQLSPEEYECLKGKIMRDVIDGGDQYRKTTPQELKRFENFIKSRPPFDVVIDGLNVAKMFPKVRESQLLLNVVSQLAKRNLRLLVLGRKHMLRRSSQWSRDEMEEVQKQASCFFADDISEDDPFLLYATLHSGNHCRFITRDLMRDHKACLPDAKTQRLFFKWQQGHQLAIVNRFPGSKLTFQRILSYDTVVQTTGDSWHIPYDEDLVERCSCEVPTKWLCLHQKT [KIAA0391]”, the “solubility in G1/S (log2)” value with HeLa Kyoto [1] turned out to be 0.189. Moreover, the results for the melting temperature with HeLa Kyoto [2] (cell cycle stage: G1/S) and in the data set with HeLa Kyoto [2] (cell cycle stage: mitosis) were 47.8 °C and 48.4 °C, respectively. Besides, the “solubility change mitosis (log2)” value with HeLa Kyoto [3] was -0.118. Besides, the results for the thermal stability score in the data set with HeLa Kyoto [4] (setting [5]) and in the data set with HeLa Kyoto [4] (cell cycle stage: mitosis) were 0.296 and 1.88, respectively.

On to “MTHWFHRNPLKATAPVSFNYYGVVTGPSASKICNDLRSSRARLLELFTDLSCNPEMMKNAADSYFSLLQGFINSLDESTQESKLRYIQNFKWTDTLQGQVPSAQQDAVFELISMGFNVALWYTKYASRLAGKENITEDEAKEVHRSLKIAAGIFKHLKESHLPKLITPAEKGRDLESRLIEAYVIQCQAEAQEVTIARAIELKHAPGLIAALAYETANFYQKADHTLSSLEPAYSAKWRKYLHLKMCFYTAYAYCYHGETLLASDKCGEAIRSLQEAEKLYAKAEALCKEYGETKGPGPTVKPSGHLFFRKLGNLVKNTLEKCQRENGFIYFQKIPTEAPQLELKANYGLVEPIPFEFPPTSVQWTPETLAAFDLTKRPKDDSTKPKPEEEVKPVKEPDIKPQKDTGCYIS [BROX]”, for which the “solubility in G1/S (log2)” value in the data set on HeLa Kyoto [1] is 0.511. Besides, the melting temperature came to 49.6 °C in the data set on HeLa Kyoto [2] (cell cycle stage: G1/S) and 49.8 °C with HeLa Kyoto [2] (cell cycle stage: mitosis). Moreover, the “solubility change mitosis (log2)” value with HeLa Kyoto [3] is -0.114. For the same sequence, the thermal stability score in the data set on HeLa Kyoto [4] (setting [5]) was -0.298; in the data set on HeLa Kyoto [4] (cell cycle stage: mitosis), 0.407.

With “MTILPKKKPPPPDADPANEPPPPGPMPPAPRRGGGVGVGGGGTGVGGGDRDRDSGVVGARPRASPPPQGPLPGPPGALHRWALAVPPGAVAGPRPQQASPPPCGGPGGPGGGPGDALGAAAAGVGAAGVVVGVGGAVGVGGCCSGPGHSKRRRQAPGVGAVGGGSPEREEVGAGYNSEDEYEAAAARIEAMDPATVEQQEHWFEKALRDKKGFIIKQMKEDGACLFRAVADQVYGDQDMHEVVRKHCMDYLMKNADYFSNYVTEDFTTYINRKRKNNCHGNHIEMQAMAEMYNRPVEVYQYSTGTSAVEPINTFHGIHQNEDEPIRVSYHRNIHYNSVVNPNKATIGVGLGLPSFKPGFAEQSLMKNAIKTSEESWIEQQMLEDKKRATDWEATNEAIEEQVARESYLQWLRDQEKQARQVRGPSQPRKASATCSSATAAASSGLEEWTSRSPRQRSSASSPEHPELHAELGMKPPSPGTVLALAKPPSPCAPGTSSQFSAGADRATSPLVSLYPALECRALIQQMSPSAFGLNDWDDDEILASVLAVSQQEYLDSMKKNKVHRDPPPDKS [OTUD5]”, the “solubility in G1/S (log2)” value in the data set on HeLa Kyoto [1] came to 0.259. For the same sequence, the melting temperature in the data set on HeLa Kyoto [2] (cell cycle stage: G1/S) worked out at 51.6 °C; in the data set with HeLa Kyoto [2] (cell cycle stage: mitosis), 52.4 °C. Further, the “solubility change mitosis (log2)” value with HeLa Kyoto [3] came to 0.178. For the same sequence, the results for the thermal stability score with HeLa Kyoto [4] (setting [5]) and with HeLa Kyoto [4] (cell cycle stage: mitosis) were -1.93 and 0.592, respectively.

For the sequence “MTKSNGEEPKMGGRMERFQQGVRKRTLLAKKKVQNITKEDVKSYLFRNAFVLLTVTAVIVGTILGFTLRPYRMSYREVKYFSFPGELLMRMLQMLVLPLIISSLVTGMAALDSKASGKMGMRAVVYYMTTTIIAVVIGIIIVIIIHPGKGTKENMHREGKIVRVTAADAFLDLIRNMFPPNLVEACFKQFKTNYEKRSFKVPIQANETLVGAVINNVSEAMETLTRITEELVPVPGSVNGVNALGLVVFSMCFGFVIGNMKEQGQALREFFDSLNEAIMRLVAVIMWYAPVGILFLIAGKIVEMEDMGVIGGQLAMYTVTVIVGLLIHAVIVLPLLYFLVTRKNPWVFIGGLLQALITALGTSSSSATLPITFKCLEENNGVDKRVTRFVLPVGATINMDGTALYEALAAIFIAQVNNFELNFGQIITISITATAASIGAAGIPQAGLVTMVIVLTSVGLPTDDITLIIAVDWFLDRLRTTTNVLGDSLGAGIVEHLSRHELKNRDVEMGNSVIEENEMKKPYQLIAQDNETEKPIDSETKM [SLC1A3]”, the “solubility in G1/S (log2)” value with HeLa Kyoto [1] is -0.131. The melting temperature is 61.8 °C in the data set on HeLa Kyoto [2] (cell cycle stage: G1/S) and 58 °C in the data set with HeLa Kyoto [2] (cell cycle stage: mitosis). Further, the “solubility change mitosis (log2)” value with HeLa Kyoto [3] is 0.0284. The values for the thermal stability score with HeLa Kyoto [4] (setting [5]) and in the data set on HeLa Kyoto [4] (cell cycle stage: mitosis) were -4.57 and -5.19, respectively.

On to “MTLDMDAVLSDFVRSTGAEPGLARDLLEGKNWDVNAALSDFEQLRQVHAGNLPPSFSEGSGGSRTPEKGFSDREPTRPPRPILQRQDDIVQEKRLSRGISHASSSIVSLARSHVSSNGGGGGSNEHPLEMPICAFQLPDLTVYNEDFRSFIERDLIEQSMLVALEQAGRLNWWVSVDPTSQRLLPLATTGDGNCLLHAASLGMWGFHDRDLMLRKALYALMEKGVEKEALKRRWRWQQTQQNKESGLVYTEDEWQKEWNELIKLASSEPRMHLGTNGANCGGVESSEEPVYESLEEFHVFVLAHVLRRPIVVVADTMLRDSGGEAFAPIPFGGIYLPLEVPASQCHRSPLVLAYDQAHFSALVSMEQKENTKEQAVIPLTDSEYKLLPLHFAVDPGKGWEWGKDDSDNVRLASVILSLEVKLHLLHSYMNVKWIPLSSDAQAPLAQPESPTASAGDEPRSTPESGDSDKESVGSSSTSNEGGRRKEKSKRDREKDKKRADSVANKLGSFGKTLGSKLKKNMGGLMHSKGSKPGGVGTGLGGSSGTETLEKKKKNSLKSWKGGKEEAAGDGPVSEKPPAESVGNGGSKYSQEVMQSLSILRTAMQGEGKFIFVGTLKMGHRHQYQEEMIQRYLSDAEERFLAEQKQKEAERKIMNGGIGGGPPPAKKPEPDAREEQPTGPPAESRAMAFSTGYPGDFTIPRPSGGGVHCQEPRRQLAGGPCVGGLPPYATFPRQCPPGRPYPHQDSIPSLEPGSHSKDGLHRGALLPPPYRVADSYSNGYREPPEPDGWAGGLRGLPPTQTKCKQPNCSFYGHPETNNFCSCCYREELRRREREPDGELLVHRF [OTUD7B]”, for which the “solubility in G1/S (log2)” value with HeLa Kyoto [1] came to 0.376. In addition, the melting temperature was found to be 50.8 °C in the data set with HeLa Kyoto [2] (cell cycle stage: G1/S) and 50.9 °C with HeLa Kyoto [2] (cell cycle stage: mitosis). The “solubility change mitosis (log2)” value in the data set with HeLa Kyoto [3] was -0.0993. Besides, the thermal stability score in the data set with HeLa Kyoto [4] (setting [5]) was 0.347; with HeLa Kyoto [4] (cell cycle stage: mitosis), 0.243.

As to “MTLESMMACCLSDEVKESKRINAEIEKQLRRDKRDARRELKLLLLGTGESGKSTFIKQMRIIHGAGYSEEDKRGFTKLVYQNIFTAMQAMIRAMETLKILYKYEQNKANALLIREVDVEKVTTFEHQYVSAIKTLWEDPGIQECYDRRREYQLSDSAKYYLTDVDRIATLGYLPTQQDVLRVRVPTTGIIEYPFDLENIIFRMVDVGGQRSERRKWIHCFENVTSIMFLVALSEYDQVLVESDNENRMEESKALFRTIITYPWFQNSSVILFLNKKDLLEDKILYSHLVDYFPEFDGPQRDAQAAREFILKMFVDLNPDSDKIIYSHFTCATDTENIRFVFAAVKDTILQLNLKEYNLV [GNA11]”, in the data set with HeLa Kyoto [1], the “solubility in G1/S (log2)” value was -0.276. The results for the melting temperature in the data set on HeLa Kyoto [2] (cell cycle stage: G1/S) and with HeLa Kyoto [2] (cell cycle stage: mitosis) were 51.1 °C and 50.6 °C, respectively. In the data set on HeLa Kyoto [3], the “solubility change mitosis (log2)” value was -0.121. Moreover, the figures for the thermal stability score with HeLa Kyoto [4] (setting [5]) and in the data set with HeLa Kyoto [4] (cell cycle stage: mitosis) were 0.848 and 0.911, respectively.

Regarding “MTMDKSELVQKAKLAEQAERYDDMAAAMKAVTEQGHELSNEERNLLSVAYKNVVGARRSSWRVISSIEQKTERNEKKQQMGKEYREKIEAELQDICNDVLELLDKYLIPNATQPESKVFYLKMKGDYFRYLSEVASGDNKQTTVSNSQQAYQEAFEISKKEMQPTHPIRLGLALNFSVFYYEILNSPEKACSLAKTAFDEAIAELDTLNEESYKDSTLIMQLLRDNLTLWTSENQGDEGDAGEGEN [YWHAB]”, the “solubility in G1/S (log2)” value in the data set with HeLa Kyoto [1] was determined as 0.324. Further, the melting temperature was 52.6 °C with HeLa Kyoto [2] (cell cycle stage: G1/S) and 52.8 °C in the data set with HeLa Kyoto [2] (cell cycle stage: mitosis). Further, the “solubility change mitosis (log2)” value with HeLa Kyoto [3] came out at 0.402. In addition, the figures for the thermal stability score in the data set on HeLa Kyoto [4] (setting [5]) and in the data set with HeLa Kyoto [4] (cell cycle stage: mitosis) were -1.46 and -2.76, respectively.

The values are drawn from the supplement of paper PMC5998384.
